# B1: MGHHHHHHGDWKWDGGLVPRGSDEMLRELQETNAALQDVRELLRQQVKQITFLRALLMGGRLLARLEELERRLEELERRLEELERAINTVDLELAALRRRLEELAR (protein)
# chain: MGHHHHHHGDWKWDGGLVPRGSDEMLRELQETNAALQDVRELLRQQVKQITFLRALLMGGRLLARLEELERRLEELERRLEELERAINTVDLELAALRRRLEELAR
# modifications: building block comprising His-tag, COMP and P5c6
# B2: SEQ ID NO: 33 (protein)
# chain: B1 chain
# modifications: building block comprising His-tag, COMP and P5c6
# B3: MGHHHHHHASWKWDGGLVPRGSWQTWNAKWDQWSNDWNAWRSDWQAWKDDWAFWRALWMGGRLLLRLEELERRLEELEKKIAKMEKASSVFNVVLAALRRRLEELARGGSGANANPNANPNANPNANP (protein)
# chain: MGHHHHHHASWKWDGGLVPRGSWQTWNAKWDQWSNDWNAWRSDWQAWKDDWAFWRALWMGGRLLLRLEELERRLEELEKKIAKMEKASSVFNVVLAALRRRLEELARGGSGANANPNANPNANPNANP
# modifications: pentameric coiled coil with tryptophane zipper and trimeric coiled coil with P. falciparum HTL epitope
# How the values were obtained:
# [1] = system: DR1, DR2, DR4, DR5, DRw6, DR7 and DR9 molecules; settings: cited from earlier work
# [2] = analytical ultracentrifugation of SAPN; assay type: physicochemical; settings: for MW / No. of monomers: SAPN
# Experimental: Three conditions were tested for assembling nanoparticles from the monomeric building block SEQ ID NO:33. The molecular weight (MW) of the SAPN was assessed by analytical ultracentrifugation: The peptide was dissolved at 0.42 mg/ml, 0.34 mg/ml, and 0.21 mg/ml, in 150 mM NaCl, 20 mM Tris, pH 7.5. The measured MW corresponds to SAPN composed of about 330 monomers, i.e. a nanoparticle with more monomers than needed for a regular polyhedron with 60 asymmetric units (Table 23).
# [3] = assay type: physicochemical; settings: DLS at pH 6.5
# [4] = peptide 0.21 mg/ml in 150 mM NaCl, 20 mM Tris, pH 7.5
# [5] = peptide 0.34 mg/ml in 150 mM NaCl, 20 mM Tris, pH 7.5
# [6] = peptide 0.42 mg/ml in 150 mM NaCl, 20 mM Tris, pH 7.5
molecule,measurement,setting,value
CS.T3 peptide: 17 C-terminal amino acids of P. falciparum circum sporozoite protein CS with two cysteines replaced by alanines (RLLLRLEELERRLEELEKKIAKMEKASSVFNVVLAALRRRLEELAR; trimeric coiled coil with P. falciparum HTL epitope),pan DR activity in cell proliferation assay,[1],stimulatory
B1,molecular weight of the SAPN,[2]; analytical ultracentrifugation,about 4 MD
same,number of monomers (peptide chains) per SAPN,"[2]; from measured MW, 150 mM NaCl, 20 mM Tris, pH 7.5",about 330
B2,MW,[2]; [4],4066 kDa
same,No. of monomers,[2]; [4],323
same,MW,[2]; [5],4128 kDa
same,No. of monomers,[2]; [5],328
same,MW,[2]; [6],4331 kDa
same,No. of monomers,[2]; [6],344
B3,particle diameter,[3],44.6 nm
same,polydispersity index,[3],19.6%

# From patent US8546337B2, “Self-assembling peptide nanoparticles useful as vaccines” (Alpha-O-Peptides AG, priority 2008, dated 2013)
